Reference: patent US20110135639A1 (Human Genome Sciences, published 2011)

Legend:
[1] = biological target: T1, membrane-bound form of Neutrokine-alpha (human, UniProt Q9Y275 1-285); assay: binding to THP-1 cells
T1 construct: also called Neutrokine-alpha on the surface of THP-1 cells; cell surface Neutrokine-alpha

[2] = biological target: T2, peptide comprising amino acid residues Val-227 to Asn-242 of SEQ ID NO:2 (human); assay: epitope mapping with peptide
T2 peptide: VTLFRCIQNMPETLPN

[3] = biological target: T3, soluble form of Neutrokine-alpha (amino acids 134 to 285 of SEQ ID NO:2) (human, UniProt Q9Y275 134-285); assay: capture of Neutrokine-alpha from solution
T3 construct: also called rNeutrokine-alpha; BLyS

T1 sequence (Q9Y275 whole entry): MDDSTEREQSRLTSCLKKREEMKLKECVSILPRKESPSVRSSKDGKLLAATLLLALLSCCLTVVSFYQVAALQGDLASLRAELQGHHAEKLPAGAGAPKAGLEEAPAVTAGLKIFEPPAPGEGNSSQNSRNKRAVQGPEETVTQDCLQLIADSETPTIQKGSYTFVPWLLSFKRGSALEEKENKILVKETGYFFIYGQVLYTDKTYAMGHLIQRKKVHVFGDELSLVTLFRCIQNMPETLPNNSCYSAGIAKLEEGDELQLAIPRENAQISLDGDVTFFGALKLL

binding result [1]: binds
binding result [2]: binds
binding result [3]: binds
B1: murine monoclonal antibody 15C10 (antibody, V domains shown)
VH: QVQLQQSGAELARPGASVKMSCRASGYTFTTYTMHWVKQRPGQGLEWIGYIIPRNTYTTFNQKFKNKATLTADKSSNTAYMQLSSLTSEDSAVYYCARHYGGGYWFFDVWGAGTTVTVSS
VL: ELVMTQTPASLAVSLGQRATISCRGSESVDSYGNSFMHWYQQKPGQPPKLLIYRASNLESGIPARFSGSGSRTDFTLTIYPVEADDVATYYCQQSNDDPMYTFGGGTKLEIKR
notes: A chimeric form with human IgG1 and kappa constant regions also exists (PTA-3794); also called hybridoma ATCC PTA-1158
